Test results taken from patent US8802630B2, “Method of treating brain injury” (Buddhist Tzu Chi General Hospital, priority 2011, dated 2014).
Where no end group is shown, it is not given here.

Conditions: rat, in vivo

fluorescence-labeled UCN: UCN labeled with the Alexa Fluor 488 dye using Microscale Protein Labeling Kit (DNPSLSIDLTFHLLRTLLELARTQSQRERAEQNRIIFDSV; ends and bridges not checked; also: Alexa Fluor 488 label, site not given here; UniProt P55089 83-122, looked up)
penetration from lateral ventricle into striatal parenchyma: co-localized in cell nuclei of the striatum on the ipsilateral
